{
  "source": "paper PMC11969024",
  "about": "“Development of chemokine network inhibitors using combinatorial saturation mutagenesis” (Communications Biology, 2025)",
  "parents": {"B1": {"name": "peptide HD2 (from tick evasin EVA4) / CCL4 (biotinylated, synthetic) (parent)", "chain 1": "EEDDYTAYAPLTCYFT", "chain 2": "APMGSDPPTACCFSYTARKLPRNFVVDYYETSSLCSQPAVVFQTKRSKQVCADPSESWVQEYVYDLELN"}, "B2": {"name": "peptide HD2 (from tick evasin EVA4) / CXCL14 (biotinylated, synthetic) (parent)", "chain 1": "EEDDYTAYAPLTCYFT", "chain 2": "SKCKCSRKGPKIRYSDVKKLEMKPKYPHCEEKMVIITTKSVSRYRGQEHCLHPKLQSTKRFIKWYNAWNEKRRVYEE"}},
  "data": [
    {"variants_of": "B1", "conditions": "with CCL4 (biotinylated, synthetic); scale: log2", "values": [
      {"variant": "chain 1 EECDYTAYAPLTCYFT", "note": "[chain 1 D3C]", "enrichment": -9.47},
      {"variant": "chain 1 EEKDYTAYAPLTCYFT", "note": "[chain 1 D3K]", "enrichment": -4.93},
      {"variant": "chain 1 EEDDQTAYAPLTCYFT", "note": "[chain 1 Y5Q]", "enrichment": -4.93},
      {"variant": "chain 1 EEDDGTAYAPLTCYFT", "note": "[chain 1 Y5G]", "enrichment": -6.68},
      {"variant": "chain 1 EEDDKTAYAPLTCYFT", "note": "[chain 1 Y5K]", "enrichment": -5.17},
      {"variant": "chain 1 EEDDNTAYAPLTCYFT", "note": "[chain 1 Y5N]", "enrichment": -7.28},
      {"variant": "chain 1 EEDDATAYAPLTCYFT", "note": "[chain 1 Y5A]", "enrichment": -6.64},
      {"variant": "chain 1 EEDDYTAYDPLTCYFT", "note": "[chain 1 A9D]", "enrichment": -7.8},
      {"variant": "chain 1 EEDDYTAYCPLTCYFT", "note": "[chain 1 A9C]", "enrichment": -9.66},
      {"variant": "chain 1 EEDDYTARAPLTCYFT", "note": "[chain 1 Y8R]", "enrichment": -7.75},
      {"variant": "chain 1 EEDDYTAMAPLTCYFT", "note": "[chain 1 Y8M]", "enrichment": -8.06},
      {"variant": "chain 1 EEDDYTAGAPLTCYFT", "note": "[chain 1 Y8G]", "enrichment": -8.28},
      {"variant": "chain 1 EEDDYTAQAPLTCYFT", "note": "[chain 1 Y8Q]", "enrichment": -5.93},
      {"variant": "chain 1 EEDDYTACAPLTCYFT", "note": "[chain 1 Y8C]", "enrichment": -9.25},
      {"variant": "chain 1 EEDDYTAKAPLTCYFT", "note": "[chain 1 Y8K]", "enrichment": -5.64},
      {"variant": "chain 1 EEDDYTAYAHLTCYFT", "note": "[chain 1 P10H]", "enrichment": -7.52},
      {"variant": "chain 1 EEDDYTAYAMLTCYFT", "note": "[chain 1 P10M]", "enrichment": -8.07},
      {"variant": "chain 1 EEDDYTAYARLTCYFT", "note": "[chain 1 P10R]", "enrichment": -8.65},
      {"variant": "chain 1 EEDDYTAYANLTCYFT", "note": "[chain 1 P10N]", "enrichment": -7.59},
      {"variant": "chain 1 EEDDYTAYAILTCYFT", "note": "[chain 1 P10I]", "enrichment": -8.01},
      {"variant": "chain 1 EEDDYTAYAKLTCYFT", "note": "[chain 1 P10K]", "enrichment": -6.53},
      {"variant": "chain 1 EEDCYTAYAPLTCYFT", "note": "[chain 1 D4C]", "enrichment": -8.81},
      {"variant": "chain 1 ECDDYTAYAPLTCYFT", "note": "[chain 1 E2C]", "enrichment": -9.58},
      {"variant": "chain 1 EEDDYTAYAPLTRYFT", "note": "[chain 1 C13R]", "enrichment": -10.1},
      {"variant": "chain 1 EEDDYTAYAPLTHYFT", "note": "[chain 1 C13H]", "enrichment": -8.22},
      {"variant": "chain 1 EEDDYCAYAPLTCYFT", "note": "[chain 1 T6C]", "enrichment": -10.7},
      {"variant": "chain 1 CEDDYTAYAPLTCYFT", "note": "[chain 1 E1C]", "enrichment": -9.32}
    ]},
    {"variants_of": "B2", "conditions": "with CXCL14 (biotinylated, synthetic); scale: log2", "values": [
      {"variant": "chain 1 EEDDYTAQAPLTCYFT", "note": "[chain 1 Y8Q]", "enrichment": -4.62},
      {"variant": "chain 1 EEDDYTAKAPLTCYFT", "note": "[chain 1 Y8K]", "enrichment": -4.33},
      {"variant": "chain 1 EEDDYTAGAPLTCYFT", "note": "[chain 1 Y8G]", "enrichment": -6.97},
      {"variant": "chain 1 EEDDYTAHAPLTCYFT", "note": "[chain 1 Y8H]", "enrichment": -5.83},
      {"variant": "chain 1 EEDDYTAAAPLTCYFT", "note": "[chain 1 Y8A]", "enrichment": -7.04},
      {"variant": "chain 1 EEDDYTACAPLTCYFT", "note": "[chain 1 Y8C]", "enrichment": -7.94},
      {"variant": "chain 1 EEDDYTARAPLTCYFT", "note": "[chain 1 Y8R]", "enrichment": -6.45},
      {"variant": "chain 1 EEDDYTAEAPLTCYFT", "note": "[chain 1 Y8E]", "enrichment": -4.45},
      {"variant": "chain 1 EEDDYTAYACLTCYFT", "note": "[chain 1 P10C]", "enrichment": -7.98},
      {"variant": "chain 1 EEDDYTAYAILTCYFT", "note": "[chain 1 P10I]", "enrichment": -6.7},
      {"variant": "chain 1 EEDDYTAYATLTCYFT", "note": "[chain 1 P10T]", "enrichment": -6.13},
      {"variant": "chain 1 EEDDYTAYARLTCYFT", "note": "[chain 1 P10R]", "enrichment": -7.34},
      {"variant": "chain 1 EEDDYTAYAKLTCYFT", "note": "[chain 1 P10K]", "enrichment": -5.23},
      {"variant": "chain 1 EEDDYTAYAYLTCYFT", "note": "[chain 1 P10Y]", "enrichment": -6.83},
      {"variant": "chain 1 EEDDYTAYAPLTCYPT", "note": "[chain 1 F15P]", "enrichment": -5.62},
      {"variant": "chain 1 EEDDYTAYAPLTCYET", "note": "[chain 1 F15E]", "enrichment": -7.19},
      {"variant": "chain 1 EEDDYTAYAPLTCYDT", "note": "[chain 1 F15D]", "enrichment": -6.86},
      {"variant": "chain 1 EEDDYTAYAPLTCFFT", "note": "[chain 1 Y14F]", "enrichment": -6.35},
      {"variant": "chain 1 EEDDYTAYAPLTCGFT", "note": "[chain 1 Y14G]", "enrichment": -8.76},
      {"variant": "chain 1 EEDDYTAYAPLTCDFT", "note": "[chain 1 Y14D]", "enrichment": -5.79},
      {"variant": "chain 1 EEDDYTAYAPLTCIFT", "note": "[chain 1 Y14I]", "enrichment": -5.53},
      {"variant": "chain 1 EEDDYTAYAPLTCKFT", "note": "[chain 1 Y14K]", "enrichment": -6.43},
      {"variant": "chain 1 EEDDYTAYAPLTCMFT", "note": "[chain 1 Y14M]", "enrichment": -7.23},
      {"variant": "chain 1 EEDDYTAYAPLTCPFT", "note": "[chain 1 Y14P]", "enrichment": -7.11},
      {"variant": "chain 1 EEDDYTAYAPLTCRFT", "note": "[chain 1 Y14R]", "enrichment": -8.35},
      {"variant": "chain 1 EEDDYTAYAPLTCYFF", "note": "[chain 1 T16F]", "enrichment": -5.71},
      {"variant": "chain 1 EEDDYTAYAPLTCYFR", "note": "[chain 1 T16R]", "enrichment": -7.45},
      {"variant": "chain 1 EEDDYTAYAPLTCYFY", "note": "[chain 1 T16Y]", "enrichment": -5.41},
      {"variant": "chain 1 EEDKYTAYAPLTCYFT", "note": "[chain 1 D4K]", "enrichment": -5.14},
      {"variant": "chain 1 EEDHYTAYAPLTCYFT", "note": "[chain 1 D4H]", "enrichment": -6.03},
      {"variant": "chain 1 EEDTYTAYAPLTCYFT", "note": "[chain 1 D4T]", "enrichment": -6.14},
      {"variant": "chain 1 EEDRYTAYAPLTCYFT", "note": "[chain 1 D4R]", "enrichment": -5.35},
      {"variant": "chain 1 EEDGYTAYAPLTCYFT", "note": "[chain 1 D4G]", "enrichment": -4.48},
      {"variant": "chain 1 EEDVYTAYAPLTCYFT", "note": "[chain 1 D4V]", "enrichment": -8.11},
      {"variant": "chain 1 EEDAYTAYAPLTCYFT", "note": "[chain 1 D4A]", "enrichment": -6.34},
      {"variant": "chain 1 EEDLYTAYAPLTCYFT", "note": "[chain 1 D4L]", "enrichment": -9.04},
      {"variant": "chain 1 EEDCYTAYAPLTCYFT", "note": "[chain 1 D4C]", "enrichment": -7.5},
      {"variant": "chain 1 EEDQYTAYAPLTCYFT", "note": "[chain 1 D4Q]", "enrichment": -4.74},
      {"variant": "chain 1 NEDDYTAYAPLTCYFT", "note": "[chain 1 E1N]", "enrichment": -6.84},
      {"variant": "chain 1 REDDYTAYAPLTCYFT", "note": "[chain 1 E1R]", "enrichment": -6.24},
      {"variant": "chain 1 GEDDYTAYAPLTCYFT", "note": "[chain 1 E1G]", "enrichment": -5.5},
      {"variant": "chain 1 HEDDYTAYAPLTCYFT", "note": "[chain 1 E1H]", "enrichment": -6.24},
      {"variant": "chain 1 AEDDYTAYAPLTCYFT", "note": "[chain 1 E1A]", "enrichment": -5.59},
      {"variant": "chain 1 EEQDYTAYAPLTCYFT", "note": "[chain 1 D3Q]", "enrichment": -3.25},
      {"variant": "chain 1 EEADYTAYAPLTCYFT", "note": "[chain 1 D3A]", "enrichment": -5.29},
      {"variant": "chain 1 EELDYTAYAPLTCYFT", "note": "[chain 1 D3L]", "enrichment": -8.51},
      {"variant": "chain 1 EEVDYTAYAPLTCYFT", "note": "[chain 1 D3V]", "enrichment": -7.6},
      {"variant": "chain 1 EEHDYTAYAPLTCYFT", "note": "[chain 1 D3H]", "enrichment": -5.23},
      {"variant": "chain 1 EEKDYTAYAPLTCYFT", "note": "[chain 1 D3K]", "enrichment": -3.62},
      {"variant": "chain 1 EEWDYTAYAPLTCYFT", "note": "[chain 1 D3W]", "enrichment": -5.18},
      {"variant": "chain 1 EEDDYTAYAPKTCYFT", "note": "[chain 1 L11K]", "enrichment": -5.25},
      {"variant": "chain 1 EEDDYTAYAPETCYFT", "note": "[chain 1 L11E]", "enrichment": -6.43},
      {"variant": "chain 1 EEDDYTAYAPPTCYFT", "note": "[chain 1 L11P]", "enrichment": -6.36},
      {"variant": "chain 1 EEDDYTAYAPGTCYFT", "note": "[chain 1 L11G]", "enrichment": -8.51},
      {"variant": "chain 1 EHDDYTAYAPLTCYFT", "note": "[chain 1 E2H]", "enrichment": -5.9},
      {"variant": "chain 1 ECDDYTAYAPLTCYFT", "note": "[chain 1 E2C]", "enrichment": -8.27},
      {"variant": "chain 1 EQDDYTAYAPLTCYFT", "note": "[chain 1 E2Q]", "enrichment": -3.16},
      {"variant": "chain 1 EPDDYTAYAPLTCYFT", "note": "[chain 1 E2P]", "enrichment": -5.31},
      {"variant": "chain 1 EADDYTAYAPLTCYFT", "note": "[chain 1 E2A]", "enrichment": -5.18},
      {"variant": "chain 1 ERDDYTAYAPLTCYFT", "note": "[chain 1 E2R]", "enrichment": -5.39},
      {"variant": "chain 1 EKDDYTAYAPLTCYFT", "note": "[chain 1 E2K]", "enrichment": -3.41},
      {"variant": "chain 1 EEDDYTAYRPLTCYFT", "note": "[chain 1 A9R]", "enrichment": -6.78},
      {"variant": "chain 1 EEDDYTAYPPLTCYFT", "note": "[chain 1 A9P]", "enrichment": -6.07},
      {"variant": "chain 1 EEDDATAYAPLTCYFT", "note": "[chain 1 Y5A]", "enrichment": -5.33},
      {"variant": "chain 1 EEDDPTAYAPLTCYFT", "note": "[chain 1 Y5P]", "enrichment": -4.99},
      {"variant": "chain 1 EEDDNTAYAPLTCYFT", "note": "[chain 1 Y5N]", "enrichment": -5.97},
      {"variant": "chain 1 EEDDTTAYAPLTCYFT", "note": "[chain 1 Y5T]", "enrichment": -5.93}
    ]}
  ]
}
